The values below come from the nanobody polyreactivity screen of Harvey et al. (2022).

This data set can be described thus: yeast display, Sf9 membrane polyspecificity reagent, FACS + sequencing; frameworks hold sequencing errors. The method in brief: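 A nanobody's polyreactivity label depends on the gate it was sorted from. Yeast display cells were stained with 10% biotinylated, detergent-solubilized Sf9 membrane reagent for 1 hour at 4 °C, enriched on streptavidin microbeads and sorted by FACS. The low and high (top ~1%) gates were set on anti-HA fluorescence for expression and streptavidin fluorescence for reagent binding.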
As to “QVQLVESGGGLVQAGGSLRLSCAASGNTFGPYAMGWYRQAPGKERELVAAITWTDTSTHYADSVKGRFTISRDNAKNTVYLQMNSLKPEDTAVYYCARVYYVNTYRYRAGYYYWGQRTQVTVSS”, the “polyreactivity (PSR sort gate)” value is listed as “high polyreactivity”. The same measure for “QVQLVESGGGLVQAGGSLRLSCAASGNTFGYNAMGWYRQAPGKERELVASITWSGGSTYYADSVKGRFTISRDNAKNTVYLQMNSLKPEDTAVYYCNADVRFDYWGQGTQVTVSS”: “low polyreactivity”. Next, “QVQLVESGGGLVQAGGSLRLSCAASGNTFGYYAMGWYRQAPGKERELVAAITSSGGRTYYADSVKGRFTISRDNAKNTVYLQMNSLKPEDTAVYYCAAGRVGARYPTYRFYYWGQGTQVTVSS”: “high polyreactivity”; “QVQLVESGGGLVQAGGSLRLSCAASGNTFHTYTMGWYRQAPGKERELVAVITRSGGRTYYADSVKGRFTISRDNAKNTVYLQMNSLKPEDTAVYYCAVLGAGQTWLDYWGQGTQVTVSS”: “high polyreactivity”. As for “QVQLVESGGGLVQAGGSLRLSCAASGNTFKVYVMGWYRQAPGKERELVAAISRRGGNTYYADSVKGRFTISRDNAKNTVYLQMNSLKPEDTAVYYCAAYRAPYYEYDYWGQGTQVTVSS”, the “polyreactivity (PSR sort gate)” value is “high polyreactivity”. With “QVQLVESGGGLVQAGGSLRLSCAASGNTFKYYAMGWYRQAPGKERELVAAISYSGGSTYYADSVKGRFTISRDNAKNTVYLLMNSLKPEVTAVYYCAADLDSERYYWGQGTQVTVSS”, the “polyreactivity (PSR sort gate)” value is given as “low polyreactivity”. Take “QVQLVESGGGLVQAGGSLRLSCAASGNTFLVNAKGWYRQAPGKERELVATIRRGGSTNYADSVKGRFTISRDNAKNTVYLLMNSLKPEDTAVYYCNADRVGYWSSNMDYWGQGTEVTVSS”: the “polyreactivity (PSR sort gate)” value is given as “low polyreactivity”.

For the sequence “QVQLVESGGGLVQAGGSLRLSCAASGNTFPAYAMGWYRQAPGKERELVATISWSTGSTNYADSVKGRFTISRDIAKNTVYLQMNSLKPEDTAVYYCNKELYDFKDRNLKAFLLRIFDSWGQGTQVTVSS”, the “polyreactivity (PSR sort gate)” value is “low polyreactivity”. The same measure for “QVQLVESGGGLVQAGGSLRLSCAASGNTFPFNAMGWYRQAPGKERELVAAISRGGSTYYADSVKGRFTISRDNAKNTVYLQMNSLKPEDTAVYYCAVSAGKRRLDYWGQGTQVTVSS”: “high polyreactivity”; for “QVQLVESGGGLVQAGGSLRLSCAASGNTFPTYAMGWYRQAHGKERELVAAINKRGSNTYYADSVKGRFTISRDNAKNTVYLQMNSLKPEDTADYYARAAGEYDYWGQGTQVTVSS”: “high polyreactivity”; for “QVQLVESGGGLVQAGGSLRLSCAASGNTFPWYAMGWSRQAPGKERELVAAINSGGRTNYADSVKGRFTISRDNAKNTVYLQMNSLKQEDTAVYYCAAAFDWGLYCFDYWGQGTQVTVSS”: “high polyreactivity”. The same measure for “QVQLVESGGGLVQAGGSLRLSCAASGNTFREYTMGWYRQAPGKERELVAGISGSGGRTYYADSVKGRFTISRDNAKNTVYLQMNSLKPEDTAVYYCYARWYYGIGYNYWGQGTQVTVSS”: “high polyreactivity”; for “QVQLVESGGGLVQAGGSLRLSCAASGNTFRLYAMGWYRQAPGKERELVATITSGVSTNYADSVKGRFTISRDNAKNTVYLQMNSLKPEDTAVYYCAARHYYTYSSGFGRYIYTEYYWGQGTQVTVSS”: “low polyreactivity”. On to “QVQLVESGGGLVQAGGSLRLSCAASGNTFRRNVMGWYRQAPGKERELVAAINRGGSTTYADSVKGRFTISRDNAKNTVYLQMNSLKAEDTAVYYCNARTLFKWRHGHYYAYDYWGQGTQVTVSS”, for which the “polyreactivity (PSR sort gate)” value was “high polyreactivity”. Next, “QVQLVESGGGLVQAGGSLRLSCAASGNTFRSYAMGWYRQAPGKERELVAAISGRGGSTYYADSVKGRFTISRDNAKNTVDLQMNSRKPEDTAVYYCAAESRRVNYANDYWGQGTQVTVSS”: “high polyreactivity”.

“QVQLVESGGGLVQAGGSLRLSCAASGNTFRSYVMGWYRPAPGKARELVADISSGDGTNYADSVKGRFTISRDTAKNTVYLQMNSLKPEDTAVYYCAKDVYNFRSTHSYFTGYVSWGQGTQVTVSW”: the “polyreactivity (PSR sort gate)” value is “low polyreactivity”. The same measure for “QVQLVESGGGLVQAGGSLRLSCAASGNTFRSYVMGWYRQAPGKERELVAVITKSGGSTYYADSVKGRFTISRDNAKNTVYLQMNSLKPEDTAVYYCAADRPAYGVGYWGQGTQVTVSS”: “high polyreactivity”; for “QVQLVESGGGLVQAGGSLRLSCAASGNTFRWYDMGGYRQAPGKERELVAAITSSGSTTYYADSVKGRFTISRDNAKNTVYLQMNSLKPEDTAVYYCAAEDHYEGYGGYYWGHGTQVTVSS”: “low polyreactivity”. “QVQLVESGGGLVQAGGSLRLSCAASGNTFRYNAMGWYRQAPWKERELVAAISRRGGSTYYADSVKGRFTISRDNAKNTVYLQMNSLKPEDTAVYYCNAGRTAENEYWGQGTQVTVSS”: the “polyreactivity (PSR sort gate)” value was “high polyreactivity”. The same measure for “QVQLVESGGGLVQAGGSLRLSCAASGNTFRYNTMGWYRQAPGKERELVAVITRRGSSTYYADSVKGRFTISRDNAKNTVYLQMNSLKPEDTAVYYCAAAPYYVTLVTRRDYWGQGTQVTVSS”: “high polyreactivity”; for “QVQLVESGGGLVQAGGSLRLSCAASGNTFRYYAMGWYRQAPGKERELVAAISRNGGSTYADSVKGRFTISRDNAKNTVYLQMNSLKPEDTAVYYCNAYRIRPGTPYGKGYYYWGQGTQVTVSS”: “high polyreactivity”. Next, “QVQLVESGGGLVQAGGSLRLSCAASGNTFSNYAMGWYRQAPGKEREFVAAIRKSGASTYYADSVKGRFTISRDNAKNSVYLQMNSLKPEDTAVYYCAADGQVSFALGFDYWGQGTQVTVSS”: “high polyreactivity”; “QVQLVESGGGLVQAGGSLRLSCAASGNTFSPYAMGWYRQAPGKERELVAAITFRGGSTYYADSVKGRFTISRDNAKNTVYLQMNSLKPEDTAVYYCNAERGGWSGYFGYDYWGQGTQVTVSS”: “low polyreactivity”. The same measure for “QVQLVESGGGLVQAGGSLRLSCAASGNTFSSYAMGWYRQAPGKERELVAAISRRGGSTYYADSVKGRFTISRDNAKNTVYLQMNSLKPEDTAVYYCAADGTGFRYLRYDYWGQGTQVTVSS”: “high polyreactivity”; for “QVQLVESGGGLVQAGGSLRLSCAASGNTFSYYAMGWYRQAPGKERELVAAISWRGGSTYYADSVKGRFTISRDNAKNTVYLQMNSLKPEDTAVYYCAADLYWASLWYVGAAYGYEYWGQGTQVTVSS”: “low polyreactivity”; for “QVQLVESGGGLVQAGGSLRLSCAASGNTFTAYAMGWYRQAPGKERELVAAISSSGRTNYADSVKGRFTISRDNAKNTVYLQMNSLKPEDTAVYYCAAYRLSKPFYKYDYWGEGTQVTVSS”: “high polyreactivity”. “QVQLVESGGGLVQAGGSLRLSCAASGNTFTTYAMGWYRQAPGKERELVAVISRSGGRTYYADSVKGRFTISRDNAKNTVYLQMNSLKPEDTAVYYCATRTYATSEYGYWGQGTQVTVSS”: the “polyreactivity (PSR sort gate)” value is listed as “high polyreactivity”.

For “QVQLVESGGGLVQAGGSLRLSCAASGNTFTWYTIGWYRQAPGKERELVAVITSDGSTYYADSVKGRFTISRDNAKNTVYLQMNSLKPEDTAVYYCNALSADWYPEVDYWGQGTQVTVSS”, the “polyreactivity (PSR sort gate)” value was “low polyreactivity”. Next, “QVQLVESGGGLVQAGGSLRLSCAASGNTFTWYTMGWYRQAPGKERELVAVITSDGSTYYADSVKGRFTISRDNAKNTVDLQMNSLKPEDTAVYYCNALSADWYPEEDYWGQGTQVTVSS”: “low polyreactivity”; “QVQLVESGGGLVQAGGSLRLSCAASGNTFTWYTMGWYRQAPGKERELVAVITSDGSTYYADSVKGRFTISRDNAKNTVYLQMNSLKPEDTAGYYCNALSADWYPEEDFWGQGTQVTVSS”: “low polyreactivity”; “QVQLVESGGGLVQAGGSLRLSCAASGNTFTWYTMGWYRQAPGKERELVAVITSDGSTYYADSVKGRFTISRDNAKNTVYLQMNSLKPEDTAVYYCNARYLRLRYPYTDEYNYWGQGTQVTVSS”: “low polyreactivity”. The same measure for “QVQLVESGGGLVQAGGSLRLSCAASGNTFVGYTMGWYRQAPGKEWELVAAISWNGGTTYYADSVKGRFTISRDNAKNTVYLQMNSLKPEDTAVYYCNTRWYTRRFDYWGQGTQVTVSS”: “high polyreactivity”; for “QVQLVESGGGLVQAGGSLRLSCAASGNTFVSNAMGWYRPAPGKERELVAAINSGGSTNYADSVKGRFTISRDNAKNTVYLQMNSLKPEDTAVYYCNKYYDYPQRYWMDYWGQGTQVTVSS”: “low polyreactivity”.

As for “QVQLVESGGGLVQAGGSLRLSCAASGNTFVSNAMGWYRQAPGKERELVAAIDSGGSTNYADSVKGRFTISRDNEKNTVYLQMKSLKPEDTAVYYCNRTSVYYYYWGQGTQVTVSS”, the “polyreactivity (PSR sort gate)” value was “low polyreactivity”. As for “QVQLVESGGGLVQAGGSLRLSCAASGNTFVYNAMGWYRQAPGKERELVAGLTKTGGRTYYADSVKGRVTISRDNAKNTVYLQMNSLKPEETAVYYCAARPWNDGYYVGRFHMDYWGQGTQVTVSS”, the “polyreactivity (PSR sort gate)” value is on record as “low polyreactivity”. Next, “QVQLVESGGGLVQAGGSLRLSCAASGNTFVYNDMGWYRQAPGKERELVADIRYSGSTYYADSVKGRFTISRDNAKNTVYLQMNSLKPEDTAVYYCAKAYYVLSWMGYWGQGTQVTVSS”: “low polyreactivity”.

Regarding “QVQLVESGGGLVQAGGSLRLSCAASGNTFWYYAMGWYRQAPGKERELVAAISWDGGITYYADSVKGRFTISRDNAKNTVYLQMNSLKPEDTAVYYCAAETNPKYRYTLDKYEYWGQGTQVTVSS”, the “polyreactivity (PSR sort gate)” value is “high polyreactivity”. For “QVQLVESGGGLVQAGGSLRLSCAASGNTFYGYAMGWYRQAPGKERELVASITLSGDSTYYADSVKGRFTISRDNAKNTVYLQMNSLKPEDTAVYYCGGVYTYPLGYYHYTYDYWGQGPQVTVSS”, the “polyreactivity (PSR sort gate)” value was “low polyreactivity”. Regarding “QVQLVESGGGLVQAGGSLRLSCAASGNTFYGYAMGWYRQAPGKERELVASITLSGDSTYYADSVKGRFTISRDNAKNTVYLQMNSLNPEETAVYYFNAQFTPRYWGGYDSWGQGTQVTVSS”, the “polyreactivity (PSR sort gate)” value is “low polyreactivity”. In the case of “QVQLVESGGGLVQAGGSLRLSCAASGNTFYGYAMGWYRQAPGKERELVASSTLSGDSTYYADSVKGRFTISRDNAKNTVYLQMNSLKPEDTAVYYCAGVYTYPLGYYHYTYDYWGQGTQVTVSS”, the “polyreactivity (PSR sort gate)” value is “low polyreactivity”. On to “QVQLVESGGGLVQAGGSLRLSCAASGNTFYGYARGWYRQAPGKERELVASITLSGDSTYYADSVKGRFTISRDNAKNTVYLPMNSLKPEDTAVYYCNADWYFQYPYDYWGQGTQVTVSS”, for which the “polyreactivity (PSR sort gate)” value was “low polyreactivity”.
